Eleven molecules from patent publication US20250018037A1 (SEOUL NATIONAL UNIVERSITY R AND DB FOUNDATION, published 2025) can be followed below.

No end group written: not given here. *: point of attachment. Biotin = O=C1N[C@H]2[C@H](CS[C@H]2CCCCC(=O)*)N1

Test [1] addresses T1, Human CD40 on cells (Raji, Daudi, IM-9) (human, UniProt P25942 21-277).
T1 construct: whole, on cells; also called cell surface CD40; hCD40
The test is described as follows: flow cytometry on Raji cells, anti-Myc staining (axis Myc); number not labelled as MFI on the sheet; 2nd Ab only -30.7. On the technique in general: Flow cytometry measures light scatter and fluorescence of single cells or particles in a stream.

In test [2] the target is T2, biotin-labeled c-Myc peptide (Biotin-GGGGSEQKLISEEDL).
T2 construct: It is not the BSA conjugate m23; also called biotin c-Myc peptide; stain for Myc CAR
T2 peptide: Biotin-GGGGSEQKLISEEDL
The test is described as follows: flow cytometry of human T cells 8 days after transduction, stained with biotin-labeled c-Myc peptide plus streptavidin-PE; axis Myc CAR. The procedure:
After 24 h, the activated T cells were harvested, resuspended (1×10⁶/ml) in a TM media containing human IL-7, human IL-15, and the lentiviral concentrate, and cultured for two days for CAR transduction. After washing the transduced T cells, the cells were expanded in TM media with human IL-7 and human IL-15 for eight days before use. CAR expression on the cell surface was determined by flow cytometry using biotin-labeled 6×His peptide (Biotin-[…]; Peptron) for hHis CAR-T or biotin-labeled c-Myc peptide (Biotin-[…]; Peptron) for hMyc CAR-T and PE-labeled streptavidin (Biolegend).

The target of test [3] is T3, CD40-hFc protein (Acro Biosystems, #CD0-H5253) (UniProt P25942 21-193).
T3 construct: Bought protein
T3 sequence (P25942 21-193 limits assumed): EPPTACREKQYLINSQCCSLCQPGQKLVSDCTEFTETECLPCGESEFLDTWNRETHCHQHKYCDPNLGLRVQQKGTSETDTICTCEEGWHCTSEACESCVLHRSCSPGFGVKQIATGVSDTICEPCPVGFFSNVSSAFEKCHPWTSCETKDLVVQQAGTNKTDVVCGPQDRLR
Put plainly: SPR (Biacore 8K): CD40-hFc captured on immobilized anti-human Fc IgG, scFv injected in 2-fold dilutions (6 curves). An excerpt:
(§1) Since the murine anti-His antibody had decreased binding affinity against 6×His peptide after humanization, affinity maturation was further performed to increase it and chicken anti-CD40 antibody (2B1) was only humanized. Serial dilution antibodies at 6 concentrations were used to characterize the kinetics of antibody-antigen binding by SPR. […] So, there was not affinity loss against their antigen after humanization (FIG. 22B).
(§2) A Biacore 8K SPR system (Cytiva) equipped with CM5 sensor chip (Cytiva) was used to generate binding kinetic rate and affinity constants. To prepare the capture surfaces for anti-His antibodies, streptavidin was immobilized, followed by biotin conjugated 6×His peptide was captured. The antibodies were 2-fold serial diluted with 1×PBS, then injected at a flow rate of 30 μL/min for 3 minutes, allowing 10 minutes dissociation phase. The surface was regenerated using 10 mM glycine, pH 1.5. The kinetics were analyzed using Biacore 8K evaluation software, version 1.0 (Cytiva). In case of anti-CD40 antibodies, anti-human Fc IgG (Jackson ImmunoResearch) was immobilized, and then CD40-hFc protein (Acro Biosystems, #CD0-H5253) was captured. The antibodies were 2-fold serial diluted with HBS-EP+ buffer (10 mm HEPES, 150 mm sodium chloride, 3 mm EDTA, 0.05% Polysorbate 20), then injected at a flow rate of 30 μL/min for 4 minutes, allowing >15 minutes dissociation phase.
(SPR reads the build-up and loss of mass on a sensor chip optically.)

The target in test [4] is T4, Biotin conjugated 6×His peptide (also: biotin conjugated, site not given here).
T4 construct: also called histidine hexamer peptide
T4 peptide: HHHHHH
The test is described as follows: SPR (Biacore 8K): biotin 6×His peptide captured on immobilized streptavidin, scFv injected in 2-fold dilutions (6 curves).
From the text: as §1, §2

The target in test [5] is T5, BSA-conjugated c-Myc peptide (also: conjugated to BSA by thiol-maleimide reaction, thiol residue not given here).
T5 construct: also called the antigen
T5 peptide: EQKLISEEDL
Put plainly: indirect ELISA after bio-panning against BSA-conjugated c-Myc peptide. (An ELISA detects its analyte on a solid surface through an enzyme-linked reagent.)

T1 sequence (P25942 21-277): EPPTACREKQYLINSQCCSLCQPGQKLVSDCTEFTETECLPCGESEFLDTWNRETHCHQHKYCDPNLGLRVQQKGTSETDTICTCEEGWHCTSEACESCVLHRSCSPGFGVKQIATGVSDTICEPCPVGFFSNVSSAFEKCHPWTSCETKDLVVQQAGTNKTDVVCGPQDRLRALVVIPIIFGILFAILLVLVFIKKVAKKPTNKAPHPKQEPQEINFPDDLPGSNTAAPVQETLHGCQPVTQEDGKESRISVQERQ

B1: 2B1-L1-Myc-Ck (scFv)
scFv: QAALTQPSSVSANPGETVKITCSGGDSYAGSYYYGWFQQKAPGSAPVTVIYYNDKRPSDIPSRFSGSTSGSTSTLTITGVQAEDEAVYYCGSIDTSSGTGIFGAGTTLTVLGQSSRSSGGGGSSGGGGSAVTLDESGGGLQTPGGALSLVCKGSGFTFSSYQMFWVRQAPGKGLEYVAEISGSGLSTWYAPAVKGRATISRDNGQSTVRLQLNNLRAEDTGTYYCAKAAGSCGVGTCAGGIVDGIDAWGHGTEVIVSSTSGQAGQGGGGSEQKLISEEDLRTVAAPSVFIFPPSDEQLKSGTASVVCLLNNFYPREAKVQWKVDNALQSGNSQESVTEQDSKDSTYSLSSTLTLSKADYEKHKVYACEVTHQGLSLPVTKSFNRGES
For the molecule B1, the MFI in test [1] was determined as 2400.

B2: 2B1-Cκ-Myc (2B1-Cκ linked with C-terminal Myc peptide) (scFv)
scFv: QAALTQPSSVSANPGETVKITCSGGDSYAGSYYYGWFQQKAPGSAPVTVIYYNDKRPSDIPSRFSGSTSGSTSTLTITGVQAEDEAVYYCGSIDTSSGTGIFGAGTTLTVLGQSSRSSGGGGSSGGGGSAVTLDESGGGLQTPGGALSLVCKGSGFTFSSYQMFWVRQAPGKGLEYVAEISGSGLSTWYAPAVKGRATISRDNGQSTVRLQLNNLRAEDTGTYYCAKAAGSCGVGTCAGGIVDGIDAWGHGTEVIVSSTSGQAGQRTVAAPSVFIFPPSDEQLKSGTASVVCLLNNFYPREAKVQWKVDNALQSGNSQESVTEQDSKDSTYSLSSTLTLSKADYEKHKVYACEVTHQGLSSPVTKSFNRGESEQKLISEEDL
notes: also called 2B1-Ck-Myc; Myc peptide-tagged anti-hCD40 adaptor
In test [1], B2 registered an MFI of 1860.

B3: hMyc (3A6) CAR (3A6-BBz), on human T cells (other)
chain: LTQPSSVSANLGGTVKITCSGGGGSDDGSYYYSWHQQKSPGSAPVTVIYENNNRPSDIPSRFSGSKSGSTATLTITGVQAEDEAVYYCGSRDSSYVDYVGIFGAGTTLTVLGQSSRSSGGGGSSGGGGSAVTLDESGGGLQTPGRALSLVCKASGFTFSSYDMAWVRQEPGKGLEYVASISRSGRYTRYGPAVKGRATISRDNGQSTVRLQLNNLRAEDTATYFCTRGGAVSIDTWGHGTEVIVSSTTTPAPRPPTPAPTIASQPLSLRPEACRPAAGGAVHTRGLDFACDIYIWAPLAGTCGVLLLSLVITLYCKRGRKKLLYIFKQPFMRPVQTTQEEDGCSCRFPEEEEGGCELRVKFSRSADAPAYKQGQNQLYNELNLGRREEYDVLDKRRGRDPEMGGKPRRKNPQEGLYNELQKDKMAEAYSEIGMKGERRRGKGHDGLYQGLSTATKDTYDALHMQALPPR
notes: also called hMyc CAR-T cells (3A6)
In the case of B3, in test [2], the “number over the gate bar (percent of cells in the gate)” value turned out to be 38.9.

B4: 2B1-Ck-L2-Myc (scFv)
scFv: QAALTQPSSVSANPGETVKITCSGGDSYAGSYYYGWFQQKAPGSAPVTVIYYNDKRPSDIPSRFSGSTSGSTSTLTITGVQAEDEAVYYCGSIDTSSGTGIFGAGTTLTVLGQSSRSSGGGGSSGGGGSAVTLDESGGGLQTPGGALSLVCKGSGFTFSSYQMFWVRQAPGKGLEYVAEISGSGLSTWYAPAVKGRATISRDNGQSTVRLQLNNLRAEDTGTYYCAKAAGSCGVGTCAGGIVDGIDAWGHGTEVIVSSTSGQAGQRTVAAPSVFIFPPSDEQLKSGTASVVCLLNNFYPREAKVQWKVDNALQSGNSQESVTEQDSKDSTYSLSSTLTLSKADYEKHKVYACEVTHQGLSSPVTKSFNRGESGGGGSGGGSEQKLISEEDL
Molecule B4 had an MFI in test [1] of 2070.

B5: Chicken anti-CD40 scFv (2B1) (scFv)
scFv: QAALTQPSSVSANPGETVKITCSGGDSYAGSYYYGWFQQKAPGSAPVTVIYYNDKRPSDIPSRFSGSTSGSTSTLTITGVQAEDEAVYYCGSIDTSSGTGIFGAGTTLTVLGQSSRSSGGGGSSGGGGSAVTLDESGGGLQTPGGALSLVCKGSGFTFSSYQMFWVRQAPGKGLEYVAEISGSGLSTWYAPAVKGRATISRDNGQSTVRLQLNNLRAEDTGTYYCAKAAGSCGVGTCAGGIVDGIDAWGHGTEVIVSS
notes: also called parental antibody of the humanized anti-CD40 scFv; 2B1 scFv
In test [3], B5 displayed a Kd of 2.83 nM, a koff of 0.00588 s⁻¹ and a kon of 2.08e+06 M⁻¹ s⁻¹.

B6: 2B1-Ck-L1-Myc (scFv)
scFv: QAALTQPSSVSANPGETVKITCSGGDSYAGSYYYGWFQQKAPGSAPVTVIYYNDKRPSDIPSRFSGSTSGSTSTLTITGVQAEDEAVYYCGSIDTSSGTGIFGAGTTLTVLGQSSRSSGGGGSSGGGGSAVTLDESGGGLQTPGGALSLVCKGSGFTFSSYQMFWVRQAPGKGLEYVAEISGSGLSTWYAPAVKGRATISRDNGQSTVRLQLNNLRAEDTGTYYCAKAAGSCGVGTCAGGIVDGIDAWGHGTEVIVSSTSGQAGQRTVAAPSVFIFPPSDEQLKSGTASVVCLLNNFYPREAKVQWKVDNALQSGNSQESVTEQDSKDSTYSLSSTLTLSKADYEKHKVYACEVTHQGLSSPVTKSFNRGESGGGGSEQKLISEEDL
Take B6: in test [1], the MFI was determined as 1520.

B7: Murine anti-His scFv (scFv)
scFv: DILMTQTPSSLPVSLGDQASISCRSSQSIVHSNGNTYLEWYLQKPGQSPKLLIYKVSNRFSGVPDRFSGSGSGTDFTLKISRVEAEDLGVYYCFQGSHVPFTFGSGTKLEIKRGGGGSGGGGSGGGGSGGGGSQVQLQQSGPEDVKPGASVKISCKASGYTFTDYYMNWVKQSPGKGLEWIGDINPNNGGTSYNQKFKGRATLTVDKSSSTAYMELRSLTSEDSSVYYCESQSGAYWGQGTTVTVSA
notes: also called anti-His (3D5M) scFv
In test [4], B7 returned a Kd of 36.6 nM, a koff of 0.00547 s⁻¹ and an association rate constant (kon) of 149000 M⁻¹ s⁻¹.

B8: Anti-Myc scFv clone 3A6 (scFv)
scFv: QAALTQPSSVSANLGGTVKITCSGGGGSDDGSYYYSWHQQKSPGSAPVTVIYENNNRPSDIPSRFSGSKSGSTATLTITGVQAEDEAVYYCGSRDSSYVDYVGIFGAGTTLTVLGQSSRSSGGGGSSGGGGSAVTLDESGGGLQTPGRALSLVCKASGFTFSSYDMAWVRQEPGKGLEYVASISRSGRYTRYGPAVKGRATISRDNGQSTVRLQLNNLRAEDTATYFCTRGGAVSIDTWGHGTEVIVSS
notes: Selected from a chicken scFv phage library by indirect ELISA; Later produced with an 8×His tag
For the molecule B8, in test [5], the binding result was “binds”.

B9: Anti-Myc scFv clone 7A1 (scFv)
scFv: QAALTQPSSVSVNPGETVKITCSGGGSSSYYGWYQQKSPGSAPVTLIYQNTNRPSNIPSRFSGSTSGSTGTLTITGVQAEDEAVYFCGSRDSSGDGIFGAGTTLTVLGQSSRSSGGGGSSGGGGSAVTLDESGGGLQTPGRALSLVCKASGFTFSSYDMAWVRQEPGKGLEYVASISRSGRYTRYGPAVKGRATISRDNGQSTVRLQLNNLRAEDTATYFCTRGGAVSIDTWGHGTEVIVSS
notes: Selected from a chicken scFv phage library by indirect ELISA
For B9, in test [5], the binding result is reported as “binds”.

B10: hMyc (8A9) CAR (8A9-BBz), on human T cells (other)
chain: LTQPSSVSANPGETVEITCSGGSSGYYGWHQQKSPGSAPVTVIYENTNRPSDIPSRFSGSKSGSTATLTITGVQADDEAVYFCGSYDSSSASGIFGAGTTLTVLGQSSRSSGGGGSSGGGGSAVTLDESGGGLQTPGGGLSLVCKASGFTFSSYDMAWVRQEPGKGLEYVASISRSGRYTRYGPAVKGRATISRDNGQSTVRLQLNNLRAEDTATYFCTRGGAVSIDTWGHGTEVIVSSTTTPAPRPPTPAPTIASQPLSLRPEACRPAAGGAVHTRGLDFACDIYIWAPLAGTCGVLLLSLVITLYCKRGRKKLLYIFKQPFMRPVQTTQEEDGCSCRFPEEEEGGCELRVKFSRSADAPAYKQGQNQLYNELNLGRREEYDVLDKRRGRDPEMGGKPRRKNPQEGLYNELQKDKMAEAYSEIGMKGERRRGKGHDGLYQGLSTATKDTYDALHMQALPPR
notes: also called hMyc CAR-T cells (8A9)
Take B10: the “number over the gate bar (percent of cells in the gate)” value in test [2] is 21.9.

B11: hMyc (7A1) CAR (7A1-BBz), on human T cells (other)
chain: LTQPSSVSVNPGETVKITCSGGGSSSYYGWYQQKSPGSAPVTLIYQNTNRPSNIPSRFSGSTSGSTGTLTITGVQAEDEAVYFCGSRDSSGDGIFGAGTTLTVLGQSSRSSGGGGSSGGGGSAVTLDESGGGLQTPGRALSLVCKASGFTFSSYDMAWVRQEPGKGLEYVASISRSGRYTRYGPAVKGRATISRDNGQSTVRLQLNNLRAEDTATYFCTRGGAVSIDTWGHGTEVIVSSTTTPAPRPPTPAPTIASQPLSLRPEACRPAAGGAVHTRGLDFACDIYIWAPLAGTCGVLLLSLVITLYCKRGRKKLLYIFKQPFMRPVQTTQEEDGCSCRFPEEEEGGCELRVKFSRSADAPAYKQGQNQLYNELNLGRREEYDVLDKRRGRDPEMGGKPRRKNPQEGLYNELQKDKMAEAYSEIGMKGERRRGKGHDGLYQGLSTATKDTYDALHMQALPPR
notes: also called hMyc CAR-T cells (7A1)
Take B11: in test [2], the “number over the gate bar (percent of cells in the gate)” value turned out to be 19.

The Kd is the free concentration of one partner at which half of the binding sites on the other are occupied at equilibrium, for simple one-to-one binding. The term koff denotes the first-order rate constant of dissociation. A high value points to a short-lived complex. Usually kon stands for the second-order rate constant of association.
